The target of experiment [1] is spike glycoprotein of wild type SARS-CoV-2 virus (SARS-CoV-2, UniProt P0DTC2 14-1273). Put plainly: cell-based or functional assay.
In experiment [2] the target is T1, Human coronavirus OC43 spike extracellular domain (human coronavirus OC43, UniProt P36334 14-1297).
T1 construct: extracellular domain
Put plainly: ELISA. For orientation: In an ELISA, binding on a coated surface is turned into a signal by an enzyme label.

Another experiment addresses T2, SARS spike S1 subunit (severe acute respiratory syndrome …, UniProt P59594 14-667).
T2 construct: domain: S1 subunit
As to the kind of experiment: ELISA.

Experiment [3] deals with T3, SARS-CoV-2 spike S2 subunit (SARS-CoV-2, UniProt P0DTC2 686-1213).
T3 construct: domain: S2 subunit
Put plainly: ELISA.

Experiment [4] addresses T4, SARS-CoV-2 spike receptor binding domain (RBD) (SARS-CoV-2, UniProt P0DTC2 319-541).
T4 construct: also called SARS-CoV-2 RBD
Put plainly: ELISA.

Experiment [5] addresses T5, MERS spike extracellular domain (Middle East respiratory syndrome …, UniProt K9N5Q8 18-1296).
T5 construct: extracellular domain
Put plainly: ELISA.

The target of experiment [6] is T6, SARS-CoV-2 spike S1 subunit (SARS-CoV-2, UniProt P0DTC2 16-685).
T6 construct: domain: S1 subunit
As to the kind of experiment: ELISA.

T1 sequence (P36334 14-1297): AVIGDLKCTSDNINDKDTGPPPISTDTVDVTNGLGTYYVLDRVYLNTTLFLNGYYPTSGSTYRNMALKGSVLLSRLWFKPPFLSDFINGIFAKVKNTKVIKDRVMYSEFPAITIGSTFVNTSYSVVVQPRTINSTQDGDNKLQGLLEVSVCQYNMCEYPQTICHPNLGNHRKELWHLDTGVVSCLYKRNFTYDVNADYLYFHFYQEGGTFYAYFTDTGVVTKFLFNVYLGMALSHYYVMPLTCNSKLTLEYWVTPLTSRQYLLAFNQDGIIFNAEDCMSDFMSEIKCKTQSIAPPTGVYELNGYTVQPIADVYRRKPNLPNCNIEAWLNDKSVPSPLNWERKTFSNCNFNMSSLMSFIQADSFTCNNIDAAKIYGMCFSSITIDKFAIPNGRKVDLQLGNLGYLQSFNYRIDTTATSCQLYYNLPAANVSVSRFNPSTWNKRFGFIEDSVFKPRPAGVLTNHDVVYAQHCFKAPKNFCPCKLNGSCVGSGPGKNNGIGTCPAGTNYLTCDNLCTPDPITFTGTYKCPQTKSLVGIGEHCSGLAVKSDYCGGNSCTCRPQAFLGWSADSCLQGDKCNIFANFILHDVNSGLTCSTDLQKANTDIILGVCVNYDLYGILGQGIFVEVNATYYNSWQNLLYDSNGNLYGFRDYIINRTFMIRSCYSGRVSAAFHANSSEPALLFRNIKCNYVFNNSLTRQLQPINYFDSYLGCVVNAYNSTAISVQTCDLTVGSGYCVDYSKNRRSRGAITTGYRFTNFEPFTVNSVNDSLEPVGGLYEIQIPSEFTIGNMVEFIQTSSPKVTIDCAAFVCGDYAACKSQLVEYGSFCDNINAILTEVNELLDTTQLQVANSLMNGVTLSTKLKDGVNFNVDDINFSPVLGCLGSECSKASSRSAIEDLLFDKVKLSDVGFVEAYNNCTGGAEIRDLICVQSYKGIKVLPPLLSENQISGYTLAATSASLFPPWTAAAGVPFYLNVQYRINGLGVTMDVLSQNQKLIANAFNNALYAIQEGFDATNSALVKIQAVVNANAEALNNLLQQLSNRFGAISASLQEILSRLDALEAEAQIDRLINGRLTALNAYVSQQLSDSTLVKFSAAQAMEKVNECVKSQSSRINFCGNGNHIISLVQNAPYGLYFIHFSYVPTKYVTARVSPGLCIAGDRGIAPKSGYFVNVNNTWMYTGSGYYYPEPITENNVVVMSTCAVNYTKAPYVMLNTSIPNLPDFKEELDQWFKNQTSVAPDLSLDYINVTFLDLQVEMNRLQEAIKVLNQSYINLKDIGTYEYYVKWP
T5 sequence (K9N5Q8 18-1296): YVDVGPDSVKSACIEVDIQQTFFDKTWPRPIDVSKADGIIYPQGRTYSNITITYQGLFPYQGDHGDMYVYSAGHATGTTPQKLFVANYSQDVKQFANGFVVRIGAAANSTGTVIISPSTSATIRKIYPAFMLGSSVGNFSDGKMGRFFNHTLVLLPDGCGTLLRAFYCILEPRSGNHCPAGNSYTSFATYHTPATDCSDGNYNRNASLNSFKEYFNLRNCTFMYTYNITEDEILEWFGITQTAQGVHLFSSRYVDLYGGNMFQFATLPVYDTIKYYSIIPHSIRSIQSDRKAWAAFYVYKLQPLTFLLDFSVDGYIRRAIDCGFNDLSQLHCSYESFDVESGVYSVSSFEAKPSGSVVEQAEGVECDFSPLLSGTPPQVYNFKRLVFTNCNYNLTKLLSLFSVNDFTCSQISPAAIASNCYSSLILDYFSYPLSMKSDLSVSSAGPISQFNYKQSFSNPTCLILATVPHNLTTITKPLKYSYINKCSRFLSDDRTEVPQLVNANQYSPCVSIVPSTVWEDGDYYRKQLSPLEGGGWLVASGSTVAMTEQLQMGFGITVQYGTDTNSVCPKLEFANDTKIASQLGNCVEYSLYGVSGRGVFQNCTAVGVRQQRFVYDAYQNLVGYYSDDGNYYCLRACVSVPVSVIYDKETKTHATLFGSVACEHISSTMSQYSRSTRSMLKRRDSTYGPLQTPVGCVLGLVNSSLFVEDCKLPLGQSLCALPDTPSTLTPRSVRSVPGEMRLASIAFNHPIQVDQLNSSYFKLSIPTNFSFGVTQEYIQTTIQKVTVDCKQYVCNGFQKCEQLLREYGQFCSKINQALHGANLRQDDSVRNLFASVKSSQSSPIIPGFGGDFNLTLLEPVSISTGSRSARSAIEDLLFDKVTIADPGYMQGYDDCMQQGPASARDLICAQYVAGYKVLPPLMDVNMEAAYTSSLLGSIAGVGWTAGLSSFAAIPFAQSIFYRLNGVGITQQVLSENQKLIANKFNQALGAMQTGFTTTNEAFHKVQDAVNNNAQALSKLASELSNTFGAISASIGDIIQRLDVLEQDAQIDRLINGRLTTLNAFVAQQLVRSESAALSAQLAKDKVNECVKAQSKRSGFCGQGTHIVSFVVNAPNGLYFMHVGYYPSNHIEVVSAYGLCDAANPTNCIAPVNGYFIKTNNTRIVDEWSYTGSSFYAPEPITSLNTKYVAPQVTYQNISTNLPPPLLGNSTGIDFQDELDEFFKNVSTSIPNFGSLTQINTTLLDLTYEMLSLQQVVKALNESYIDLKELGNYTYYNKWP

B1: FD 1E (antibody, V domains shown)
VH: EVQLLESGGGLVKPGGSLRLSCAASGFTFSSYSMNWVRQAPGKGLEWVSSISSSSSYIYYADSVKGRFTISRDNAKNSLYLQMNSLRAEDTAVYYCASLAAAGPETYYYYGMDVWGQGTMVTVSS
VL: not shown
With B1, the “Neutralization by PRNT EC50” value in experiment [1] worked out at 110 nM. Also, the binding result (in experiment [2]; in the experiment with SARS spike S1 subunit; in experiment [3]; in experiment [4]; in experiment [5]) was “no binding” each time.

B2: FD 11E (antibody, V domains shown)
VH: EVQLVESGGGLVKPGGSLRLSCAASGFTFSSYSMNWVRQAPGKGLEWVSSISSSSSYIYYADSVKGRFTISRDNAKNSLYLQMNSLRAEDTAVYYCASLAAAGPETYYYYGMDVWGQGTMVTVSS
VL: not shown
B2: the “Neutralization by PRNT EC50” value in experiment [1] is 70 nM. Moreover, the binding result (in experiment [2]; with SARS spike S1 subunit; in experiment [3]; in experiment [4]; in experiment [5]) was “no binding” throughout.

B3: FG 12C (antibody, V domains shown)
VH: EVQLVESGGGLVQPGRSLRLSCAASGFTFDDYAMHWVRQAPGKGLEWVSGISWNSGSIGYADSVKGRFTISRDNAKNSLYLQMNSLRAEDTALYYCAKDMRVHDYGDYYFDYWGQGTLVTVSS
VL: SYELTQPPSVSVAPGKTARITCGGNNIGSKSVHWYQQKPGQAPVLVIYYDSDRPSGIPERFSGSNSGNTATLTISRVEAGDEADYYCQVWDSSSDHPVFGGGTKLTVL
Regarding B3, the binding result (in experiment [2]; in the experiment with SARS spike S1 subunit; in experiment [3]; in experiment [4]; in experiment [5]) was “no binding” throughout.

B4: FN 8C (antibody, V domains shown)
VH: QVQLVESGGGVVQPGRSLRLSCAASGFTFSSYGMHWVRQAPGKGLEWVAVISYDGSNKYYADTVKGRFTISRDNSKNTLYLQMNSLRAEDTAVYYCARERTYYDILTGYRHYYGMDVWGQGTTVTVSS
VL: SYELTQPPSVSVAPGQTARITCGGNNIGSKSVHWYQQKPGQAPVLVVYDDSDRPSGIPERFSGSNSGNTATLTISRVEAGDEADYYCQVWDSSSDHWVFGGGTKLTVL
With B4, the binding result (in experiment [2]; with SARS spike S1 subunit; in experiment [3]; in experiment [4]; in experiment [5]) was “no binding” throughout.

B5: FD 11C (antibody, V domains shown)
VH: EVQLLESGPGLVKPSETLSLTCTVSGGSISSSSYYWGWIRQPPGKGLEWIGSIYYSGSTYYNPSLKSRVTISVDTSKNQFSLKLSSVTAADTAVYYCAREYYYGSETKKYYYYYGMDVWGQGTTVTVSS
VL: not shown
As for B5, the binding result (in experiment [2]; in the experiment with SARS spike S1 subunit; in experiment [3]; in experiment [4]; in experiment [5]) was “no binding” each time.

B6: FD 7C (antibody, V domains shown)
VH: QLQLQESGPGLVKPSETLSLTCTVSGGSISSYYWSWIRQPPGKGLEWIGYIYYSGSTNYNPSLKSRVTISVDTSKNQFSLKLSSVTAADTAVYYCARDYRFGELFGRFAWFDPWGQGTLVTVSS
VL: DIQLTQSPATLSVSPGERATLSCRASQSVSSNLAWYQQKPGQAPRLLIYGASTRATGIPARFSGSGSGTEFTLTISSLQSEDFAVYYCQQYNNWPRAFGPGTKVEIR
As for B6, the “Neutralization by FMNT EC50” value in experiment [1] was 35.6 nM. The binding result (in experiment [2]; in the experiment with SARS spike S1 subunit; in experiment [3]; in experiment [4]; in experiment [5]) was “no binding” in each case.

B7: FJ 1C (antibody, V domains shown)
VH: QVQLQESGPGLVKPSETLSLTCTVSGYSISSGYYWGWIRQPPGKGLEWIGSIYHSGSTYYNPSLKSRVTISVDTSKNQFSLKLSSVTAADTAVYYCARDKALLWFGELFTNLFDYWGQGTLVTVSS
VL: QSALTQPASVSGSPGQSITISCTGTSSDVGGYNYVSWYQQHPGKAPKLMIYEVSNRPSGVSNRFSGSKSGNTASLTISGLQAEDEANYYCSSYTSSSTLVFGGGTKLTVL
For B7, the “Neutralization by PRNT EC50” value in experiment [1] amounted to 55.5 nM. Also, the binding result in experiment [2] is “no binding”; with SARS spike S1 subunit, “binds”; in experiment [3], “no binding”; in experiment [4], “no binding”; in experiment [5], “no binding”.

B8: FN 2C (antibody, V domains shown)
VH: EVQLLESGGGVVQPGRSLRLSCAASGFNFNNYGMHWVRQAPGKGLEWVATISYEGSKKFYVDSVKGRFTISKDNSKNTLYLQMNSLRVDDTAFYYCAKRREIFWLGEPPLSDAFDFWGQGTMVTVSS
VL: QSVLTQPPSVSGAPGQRVTISCTGSGSNIGAGYDVHWYQFLPGTAPQLLIYGNNNRPSGVPDRFSGSKSGTSASLAITGLQAEDEADYYCQSYDSSLSGSVFGGGTKLTVL
For B8, the binding result (with SARS spike S1 subunit; in experiment [6]; in experiment [4]; in experiment [5]) was “no binding” in each case.

B9: FB 9D (antibody, V domains shown)
VH: QVQLVESGAEVKKPGESLKISCQGSGYRFNSYWIAWVRQMPGKGLEWMGSIFPTDSDVRYNPSFQGQVTISADKSISFAYLQWSSLKASDTAIYYCARHWASMVRGVIRASHYYGMDVWGQGTTVTVSS
VL: QPVLTQPPSASGSPGQSVTISCSGASSDIGKYNYVSWYQQLPGKAPKLLIYEVTKRPSGVPDRFSGSKSGNTASLTVSGLQADDEADYYCSSYAFGGSDTRVFGGGTKLTVL
For the molecule B9, the binding result in the experiment with SARS spike S1 subunit is given as “no binding”; in experiment [6], “no binding”; in experiment [4], “no binding”; in experiment [5] it was “binds”.

B10: FB 1E (antibody, V domains shown)
VH: EVQLVESGAEVKKPGESLKISCQGSGYRFNSYWIAWVRQMPGKGLEWMGSIFPTDSDIRYNPSFQGQVTISADKSISIAYLQWSSLKASDTAIYYCARHWASMVRGVIRASHYYGMDVWGQGTTVTVSS
VL: QSVLTQPPSASGSPGQSVTISCSGASSDIGDYNYVSWYQQLPGKAPKLLIYEVTKRPSGVPDRFSGSKSGNTASLTVSGLQADDEADYYCSSYAFGGSDIRVFGGGTKLAVL
Consider B10, for which, in experiment [1], the “Neutralization by PRNT EC50” value was determined as 36 nM. Further, the binding result with SARS spike S1 subunit is “no binding”; in experiment [6] it was “no binding”; in experiment [4] it was “no binding”; in experiment [5], “binds”.

B11: FJ 4E (antibody, V domains shown)
VH: QVQLVESGPGLVKPSETLSLTCSVSGGSISSGTYYWSWIRQQPGKGLEWIGYIYNTGRPYYNPFLKSRITISVDSSKNQFSLKLTSVTAADTAVYYCARDEYDSSDSGIQGHWFDPWGQGTLVTVSS
VL: AIRMTQSPSSLSASVGDRVTITCRTSQNINSFLNWYQQKPGKGPNLLIYGAFTLQSGVPSRFSGSGSGTDFTLTISSLQPEDFATYFCQQSYSTPWTFGQGTKVEIK
With B11, the “Neutralization by PRNT EC50” value in experiment [1] is 75.3 nM. Further, the binding result with SARS spike S1 subunit was “binds”; in experiment [6] it was “no binding”; in experiment [4], “no binding”; in experiment [5], “binds”.

B12: FD 8B (antibody, V domains shown)
VH: EVQLLESGAEVKKPGASVKVSCKVSGYTLTELSMHWVRQAPGKGLEWMGGFDPEDGETIYAQKFQGRVTMTEDTSTDTAYMELSSLRSEDTAVYYCATAAAINCSSTSCYYYYYYYGMDVWGQGTTVTVSS
VL: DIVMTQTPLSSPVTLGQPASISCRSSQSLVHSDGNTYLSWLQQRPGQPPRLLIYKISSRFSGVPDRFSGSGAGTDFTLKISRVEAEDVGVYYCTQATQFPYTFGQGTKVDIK
On to B12, for which the binding result (in experiment [2]; with SARS spike S1 subunit; in experiment [3]; in experiment [4]; in experiment [5]) was “no binding” each time.

B13: EW 9C-1 (antibody, V domains shown)
VH: EVQLVESGGGVVQPGASLRLSCVASGFTFNNFGFHWVRQAPGKGLEWLAVISYEGSKTYYAESLKGRFTISRDTSKNTVYLQMNSLRAEDTAVYYCARATSIFWFGEGRNWFDPWGQGALVTVSS
VL: EIVMTQSPGTVSLSAGERATLSCRASQNVGTDLAWYVQRPGQAPRLLIYDTSNRATGIPARFSGRGSGTDFTLTIDSLEPEDFAVYYCQQRSNWPLTFGGGTKVEIK
With B13, the “Neutralization by PRNT EC50” value in experiment [1] is 133 nM. Besides, the binding result in experiment [2] is given as “binds”; with SARS spike S1 subunit, “no binding”; in experiment [6], “no binding”; in experiment [4] it was “no binding”; in experiment [5] it was “binds”.

B14: FD 11D (antibody, V domains shown)
VH: EVQLVESGGGVVQPGRSLRLSCAASGFTFSSYGMHWVRQAPGKGLEWVAVISYDGSNKYYADSVKGRFTISRDNSKNTLYLQMNSLRAEDTAVYYCAKEGAGSGWYRHHKPGYYFDYWGQGTLVTVSS
VL: not shown
Take B14: the binding result is on record as “binds” in experiment [2]; “binds” with SARS spike S1 subunit; “no binding” in experiment [3]; “no binding” in experiment [4]; “binds” in experiment [5].

B15: FD 7D (antibody, V domains shown)
VH: EVQLVESGAEVKKPGESLRISCKGSGYSFTSYWISWVRQMPGKGLEWMGRIDPSDSYTNYSPSFQGHVTISADKSISTAYLQWSSLKASDTAMYYCARHSDCSSTSCYFVDAFDIWGQGTMVTVSS
VL: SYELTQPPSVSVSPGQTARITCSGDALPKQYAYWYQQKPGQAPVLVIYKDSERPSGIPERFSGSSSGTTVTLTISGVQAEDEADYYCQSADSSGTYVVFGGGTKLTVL
Take B15: the binding result (in experiment [2]; with SARS spike S1 subunit; in experiment [3]; in experiment [4]; in experiment [5]) was “no binding” in each case.
